Experimental data reported in patent publication US20260070987A1.
Numbering of substitutions follows the chain as printed. In names and notes the source's numbering stands.

B1: equine IgG1 T286I (antibody, part only; not given: variable domains, not shown: another chain or arm of the molecule)
constant: ASTTAPKVFALAPGCGTTSDSTVALGCLVSGYFPEPVKVSWNSGSLTSGVHTFPSVLQSSGFYSLSSMVTVPASTWTSETYICNVVHAASNFKVDKRIEPIPDNHQKVCDMSKCPKCPAPELLGGPSVFIFPPNPKDTLMITRTPEVTCVVVDVSQENPDVKFNWYMDGVEVRIATTRPKEEQFNSTYRVVSVLRIQHQDWLSGKEFKCKVNNQALPQPIERTITKTKGRSQEPQVYVLAPHPDELSKSKVSVTCLVKDFYPPEINIEWQSNGQPELETKYSTTQAQQDSDGSYFLYSKLSVDRNRWQQGTTFTCGVMHEALHNHYTQKNVSKNPGK
B2: equine IgG1 T286K (antibody, part only; not given: variable domains, not shown: another chain or arm of the molecule)
constant: B1 constant with I174K
B3: equine IgG1 T286L (antibody, part only; not given: variable domains, not shown: another chain or arm of the molecule)
constant: B1 constant with I174L
B4: equine IgG4 K311V (antibody, part only; not given: variable domains, not shown: another chain or arm of the molecule)
constant: ASTTAPKVFPLASHSAATSGSTVALGCLVSSYFPEPVTVSWNSGALTSGVHTFPSVLQSSGLYSLSSMVTVPASSLKSQTYICNVAHPASSTKVDKKIVIKECNGGCPAECLQVGPSVFIFPPKPKDVLMISRTPTVTCVVVDVGHDFPDVQFNWYVDGVETHTATTEPKQEQFNSTYRVVSVLPIQHVDWLSGKEFKCKVNNKALPAPVERTISKPTGQPREPQVYVLAPHRDELSKNKVSVTCLVKDFYPTDIDIEWKSNGQPEPETKYSTTPAQLDSDGSYFLYSKLTVETNRWQQGTTFTCAVMHEALHNHYTEKSVSKSPGK
B5: equine IgG4 K311Y (antibody, part only; not given: variable domains, not shown: another chain or arm of the molecule)
constant: B4 constant with V189Y
B6: equine IgG4 A426C (antibody, part only; not given: variable domains, not shown: another chain or arm of the molecule)
constant: B4 constant with V189K, A306C
B7: equine IgG4 A426P (antibody, part only; not given: Variable domains, not shown: another chain or arm of the molecule)
constant: B4 constant with V189K, A306P
B8: equine IgG4 A426R (antibody, part only; not given: variable domains, not shown: another chain or arm of the molecule)
constant: B4 constant with V189K, A306R
B9: equine IgG4 A426Q (antibody, part only; not given: variable domains, not shown: another chain or arm of the molecule)
constant: B4 constant with V189K, A306Q
B10: equine IgG4 A426M (antibody, part only; not given: Variable domains, not shown: another chain or arm of the molecule)
constant: B4 constant with V189K, A306M
B11: equine IgG4 K311W (antibody, part only; not given: variable domains, not shown: another chain or arm of the molecule)
constant: B4 constant with V189W
B12: equine IgG4 M428A (antibody, part only; not given: variable domains, not shown: another chain or arm of the molecule)
constant: B4 constant with V189K, M308A
B13: equine IgG4 A426Y (antibody, part only; not given: variable domains, not shown: another chain or arm of the molecule)
constant: B4 constant with V189K, A306Y
B14: equine IgG4 A426L (antibody, part only; not given: variable domains, not shown: another chain or arm of the molecule)
constant: B4 constant with V189K, A306L
B15: equine IgG4 A426F (antibody, part only; not given: variable domains, not shown: another chain or arm of the molecule)
constant: B4 constant with V189K, A306F
B16: equine IgG4 A426D (antibody, part only; not given: variable domains, not shown: another chain or arm of the molecule)
constant: B4 constant with V189K, A306D
B17: equine IgG4 A426E (antibody, part only; not given: variable domains, not shown: another chain or arm of the molecule)
constant: B4 constant with V189K, A306E
B18: equine IgG4 A426N (antibody, part only; not given: variable domains, not shown: another chain or arm of the molecule)
constant: B4 constant with V189K, A306N
B19: equine IgG4 A426T (antibody, part only; not given: Variable domains, not shown: another chain or arm of the molecule)
constant: B4 constant with V189K, A306T
B20: equine IgG4 A426V (antibody, part only; not given: Variable domains, not shown: another chain or arm of the molecule)
constant: B4 constant with V189K, A306V
B21: equine IgG4 A426W (antibody, part only; not given: variable domains, not shown: another chain or arm of the molecule)
constant: B4 constant with V189K, A306W
B22: equine IgG4 A426H (antibody, part only; not given: variable domains, not shown: another chain or arm of the molecule)
constant: B4 constant with V189K, A306H
B23: equine IgG4 A426I (antibody, part only; not given: variable domains, not shown: another chain or arm of the molecule)
constant: B4 constant with V189K, A306I
B24: equine IgG4 A426K (antibody, part only; not given: variable domains, not shown: another chain or arm of the molecule)
constant: B4 constant with V189K, A306K
B25: equine IgG4 A426G (antibody, part only; not given: variable domains, not shown: another chain or arm of the molecule)
constant: B4 constant with V189K, A306G
B26: equine IgG4 A426S (antibody, part only; not given: variable domains, not shown: another chain or arm of the molecule)
constant: B4 constant with V189K, A306S

target: equine FcRn (large alpha subunit p51) / equine beta-2-microglobulin complex, biotinylated (equine) (UniProt P30441); test: SPR (Biacore), pH 6
Sequence of UniProt P30441 (P30441 21-118, one chain of several): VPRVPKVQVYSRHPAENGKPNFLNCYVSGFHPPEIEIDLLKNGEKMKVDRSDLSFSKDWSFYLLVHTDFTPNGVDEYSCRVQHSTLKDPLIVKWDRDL

| Binder | Kd [nM] |
| --- | --- |
| B1 | 18.2 |
| B2 | 37.3 |
| B3 | 12.3 |
| B4 | 22.4 |
| B5 | 21.3 |
| B6 | 18.2 |
| B7 | 9.8 |
| B8 | 22 |
| B9 | 21.2 |
| B10 | 18.5 |
| B11 | 27.1 |
| B12 | 23000 |
| B13 | 12.3 |
| B14 | 17.4 |
| B15 | 17.6 |
| B16 | 15.5 |
| B17 | 18.2 |
| B18 | 18.7 |
| B19 | 15.8 |
| B20 | 18.8 |
| B21 | 14.4 |
| B22 | 17.8 |
| B23 | 17.4 |
| B24 | 14.5 |
| B25 | 33.3 |
| B26 | 21.1 |
